Patent US20010029035A1, “Oligonucleotide conjugates” (priority 2000, published 2001)

Key:
[1] = in vivo; cited from earlier work
[2] = tested on: SSTR-positive CA20948 pancreas tumors; experiment: Organ distribution study in CA 20948 tumor-bearing Lewis rats; details: rat, in vivo
Procedure: As explained in more detail below, PNA peptide conjugates were synthesized by means of Boc chemistry.
Organ distribution studies of the conjugate were carried out with tumor-bearing rats. […] The tumor cells are thawed, washed with PBS and suspended carefully. The cell suspension was transplanted subcutaneously into the flank of male Lewis rats (220-250 g) (about 2×10^6 cells in 0.1 ml). […] After 1 hour, the animals were killed and dissected. Various organs/tissue samples (tumor, blood, heart, lung, liver, stomach, kidney, spleen, muscle) were removed, weighed and the activity in the gamma counter was determined. In this way, % ID/g values could be obtained. The competitive uptake could be examined by injection of 100 μg octreotide, 30 min. prior to the application of the radioactive octreotide derivative.

| SMILES | biological half-life [1] | organ distribution compared with 3-Tyr octreotide (in words) [2] | uptake into the tumor tissue (in words) [2] |
| --- | --- | --- | --- |
| C[C@@H](O)[C@@H]1NC(=O)[C@H](CCCCN)NC(=O)[C@@H](Cc2c[nH]c3ccccc23)NC(=O)[C@H](Cc2ccccc2)NC(=O)[C@@H](NC(=O)[C@H](N)Cc2ccccc2)CSSC[C@@H](C(=O)N[C@H](CO)[C@@H](C)O)NC1=O [Octreotide] | about 90 min. |  |  |
| Cc1cn(CC(=O)N(CCNC(=O)CN(CCNC(=O)CN(CCNC(=O)CN(CCNC(=O)CN(CCNC(=O)CN(CCNC(=O)CN(CCNC(=O)CN(CCNC(=O)CN(CCNC(=O)CN(CCNC(=O)CN(CCNC(=O)CN(CCNC(=O)[C@@H](N)Cc2ccc(O)c(I)c2)C(=O)Cn2cnc3c(N)ncnc32)C(=O)Cn2cnc3c(=O)[nH]c(N)nc32)C(=O)Cn2ccc(N)nc2=O)C(=O)Cn2cnc3c(=O)[nH]c(N)nc32)C(=O)Cn2cc(C)c(=O)[nH]c2=O)C(=O)Cn2cnc3c(=O)[nH]c(N)nc32)C(=O)Cn2ccc(N)nc2=O)C(=O)Cn2cnc3c(=O)[nH]c(N)nc32)C(=O)Cn2ccc(N)nc2=O)C(=O)Cn2ccc(N)nc2=O)C(=O)Cn2cnc3c(N)ncnc32)CC(=O)NCCN(CC(=O)NCCN(CC(=O)NCCN(CC(=O)N[C@H](Cc2ccccc2)C(=O)N[C@H]2CSSC[C@@H](C(=O)N[C@H](C(=O)O)[C@@H](C)O)NC(=O)[C@H]([C@@H](C)O)NC(=O)[C@H](CCCCN)NC(=O)[C@@H](Cc3c[nH]c4ccccc34)NC(=O)[C@H](Cc3ccccc3)NC2=O)C(=O)Cn2ccc(N)nc2=O)C(=O)Cn2ccc(N)nc2=O)C(=O)Cn2ccc(N)nc2=O)c(=O)[nH]c1=O [PNA conjugate] |  | approximately the same concentration in tumor and pancreas | selective uptake, which could be inhibited with an excess of octreotide |
